Experiments:
[1] = target: T1, human IL-2Rγ expressed on cells (human, UniProt P31785 23-369); experiment: flow cytometry on NK-92 cells, antibody at 10 µg/ml, MFI of sample over MFI of unstained; lower end, tied to H4H13538P by Table 9-2
T1 construct: whole, on cells; on cells it stands together with the cytokine-specific receptor subunits; also called IL-2Rgamma; CD132
T1 sequence (looked up): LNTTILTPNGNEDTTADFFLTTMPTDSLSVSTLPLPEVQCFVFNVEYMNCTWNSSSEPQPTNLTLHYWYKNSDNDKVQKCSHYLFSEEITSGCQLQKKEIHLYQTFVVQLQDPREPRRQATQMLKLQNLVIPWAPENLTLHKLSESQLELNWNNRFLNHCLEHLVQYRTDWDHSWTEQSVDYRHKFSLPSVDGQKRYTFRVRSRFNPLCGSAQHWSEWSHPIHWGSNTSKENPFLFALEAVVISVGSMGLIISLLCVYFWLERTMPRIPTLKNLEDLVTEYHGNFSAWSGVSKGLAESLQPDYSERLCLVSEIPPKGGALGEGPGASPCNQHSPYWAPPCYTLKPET
Description: (§1) For flow cytometry analyses, the cells were pre-incubated with mouse IgG at 100 μg/ml for 15 minutes at room temperature (RT) to block the binding of the antibodies to Fc receptors. […] Cells were washed, fixed using BD CytoFix™ (BD biosciences, #554655) and analyzed on an IQue® (Intellicyt®) Flow Cytometer or Accuri Flow cytometer (BD). […] The results were analyzed using ForeCyt® (IntelliCyt®) software to determine the geometric means of fluorescence (MFI) for viable cells. Binding ratios were calculated by normalizing the MFI of the test sample by the MFI of the unstained sample.

[2] = target: T1, human IL-2Rγ expressed on cells; experiment: flow cytometry on NK-92 cells, antibody at 10 µg/ml, MFI of sample over MFI of unstained; upper end, tied by Table 9-2 to the row printed H4H13841P
[3] = target: T1, human IL-2Rγ expressed on cells; experiment: flow cytometry on NK-92 cells, antibody at 10 µg/ml, MFI of sample over MFI of unstained; upper end, tied to H4H12889P by Table 9-1
Description: as §1

[4] = target: T1, human IL-2Rγ expressed on cells; experiment: flow cytometry on Jurkat cells, antibody at 10 µg/ml, MFI of sample over MFI of unstained; upper end, tied to H4H12889P by Table 9-1
Description: as §1

B1: H4H13538P (antibody, human IgG4 S228P, kappa, V domains shown)
VH: EVQLVESGGGLVQPGGSLGLSCAASGFTFSNYAMSWVRQAPGKGLEWVSAVSGGGGGTYYADSVKGRFTISRDNSKNTVLLQMNSLRAEDTAVYYCARGRTGGLDYWGPGTLVTVSS
VL: DVVMTQSPLSLPVIFGQPASISCRSSQSLVDSDGNTYLNWLQQRPGQSPRRLIYEVSNRDSGVPDRFSGSGSGTDFTLTISRVEAEDVGIYYCMQGTRWPPTFGGGTKVEIKR
notes: fully human anti-IL2Rγ antibody, human IgG4
binding ratio [1]: 1

B2: H4H13541P (antibody, human IgG4 S228P, kappa, V domains shown)
VH: EVQLVESGGGVVRPGGSLRLSCAASGFIFDDYDMSWVRQPPGRGLEWVSGIDWFGGTRGYADSMKGRFTISRDNAKNSLYLQMNSLRVEDTAFYYCARGGAIVGAVTPFDYWGQGTLVTVSS
VL: DIQMTQSPSSLSASVGNRVTLSCRASQSINTYLSWYQQRPGKAPKLLIYAASSLQSGVPSRFSGSGAGTDFTLTISSLQPEDFATYYCQQSYSAPLTFGGGTKVEIKR
notes: as for B1
binding ratio [2]: 37

B3: H4H12889P (antibody, human IgG4 S228P, kappa, V domains shown)
VH: EVQLVESGGGLVQPGGSLRLSCAASGFIFSSYEMHWVRQAPGKGLEWISYISSSGTTIYYADSVKGRFTISRDNAKNSLYLHMNSLRAEDTAVYYCTRARITGTFDVFDIWGQGTMVTVSS
VL: DIQMTQSPSSLSASVGDRVTITCRASQSISSYLNWYQQKPGKAPKLLIFAASNLQSGVPSRFSGSRSGTDFTLTISSLQPEDFATYYCQQNYNIPYTFGQGTKLEIKR
notes: fully human anti-IL2Rγ antibody, human IgG4; also called REGN7257
binding ratio [3]: 94
binding ratio [4]: 19

Reference: patent publication US20200247894A1 (Regeneron, published 2020)
